Experimental data published in the supplement of paper PMC10126150.
± gives the standard deviation of the averaged measurements.

Tested on: ATP
Assay: switch fluorescence ratio, 500 uM ATP over buffer (Cy3 cluster intensity, sum of 5 cycles each) (fold (ratio)); higher = stronger signal-on switching upon ATP binding; sequences stand for … in TCGTCGGCAGCGTCAGATGTGTATAAGAGACAGTTTTTTTTTTTTTTTTTTTTTTTTT…TC
Details: aptamer strand: ATP DNA aptamer (quencher-CACCTGGGGGAGTATTGCGGAGGAAGG + anchor), 100 nM annealed; ATP concentration: 500 uM
Procedure, shortened: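 The quencher-labelled ATP aptamer, at 100 nM, was annealed to Cy3-labelled switching-strand clusters on a modified Illumina MiSeq flow-cell. The clusters were imaged in selection buffer, then after 15 min with 500 uM ATP at 22 °C, and this buffer/ATP cycle ran five times with NaOH stripping and re-annealing between runs. Per-cluster fluorescence ratios, summed target-cycle over summed buffer-cycle Cy3 intensity, were averaged per switch-domain sequence. Clusters outside 100-1000 RFU were excluded.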
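Note: ATP exposure 15 min at 22 °C before imaging.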

TCGTCGAACG
switch fluorescence ratio: 0.988 ± 0.04

TATTACTGAG
switch fluorescence ratio: 1.07 ± 0.036

TACCTTTTGG
switch fluorescence ratio: 0.99 ± 0.026

GGGAGTCCAA
switch fluorescence ratio: 0.995 ± 0.019

TGATTGGTGG
switch fluorescence ratio: 1.01 ± 0.041

GTGTCCGGGC
switch fluorescence ratio: 0.979 ± 0.025

GGAATAATGT
switch fluorescence ratio: 1.03 ± 0.061

ATCAGGGTGC
switch fluorescence ratio: 1.06 ± 0.051

TGGTGGCCGG
switch fluorescence ratio: 1.02 ± 0.019

ATAGAAGGTG
switch fluorescence ratio: 1.43 ± 0.025

TTGGATACGT
switch fluorescence ratio: 1.03 ± 0.091

ACAAAGTGTG
switch fluorescence ratio: 1.03 ± 0.035

AATAGATAGT
switch fluorescence ratio: 0.9929 ± 0.0055

GGTCGGGGGC
switch fluorescence ratio: 1.02 ± 0.031

GATTCTGATT
switch fluorescence ratio: 0.9756 ± 0.0036

ACTGTAAGGC
switch fluorescence ratio: 1.07 ± 0.02

CCTTCAGCGT
switch fluorescence ratio: 1.73 ± 0.086

AAGTCAGGAG
switch fluorescence ratio: 1.05 ± 0.07

CGAGACAGGT
switch fluorescence ratio: 1.04 ± 0.0098

ACTTTCGGTT
switch fluorescence ratio: 1.003 ± 0.0023

TGTGACAATA
switch fluorescence ratio: 1.04 ± 0.01

GAAAGTCGGA
switch fluorescence ratio: 0.998 ± 0.066

ACCTGAGGGG
switch fluorescence ratio: 1.024 ± 0.0035

TTCGCAGGGA
switch fluorescence ratio: 1.074 ± 0.0042

TGTTCAAAAC
switch fluorescence ratio: 1 ± 0.086

GGGGTTAGCT
switch fluorescence ratio: 0.987 ± 0.018

TTAAGTGTAA
switch fluorescence ratio: 0.9697 ± 0.0036

GGTGTTAGAG
switch fluorescence ratio: 0.985 ± 0.0036

GACATTAAGG
switch fluorescence ratio: 1.01 ± 0.084

AGTTTTGAAA
switch fluorescence ratio: 0.9909 ± 0.0021

AGTTAGGAGT
switch fluorescence ratio: 0.9895 ± 0.0087

TTCTTCGGGC
switch fluorescence ratio: 1.08 ± 0.077

CCGGGAAGGG
switch fluorescence ratio: 1.05 ± 0.012

GCTTGGTGCT
switch fluorescence ratio: 1.05 ± 0.031

GGGTATGGTA
switch fluorescence ratio: 1 ± 0.023

ATTGTTTTCG
switch fluorescence ratio: 1 ± 0.029

ATAAGGTTGG
switch fluorescence ratio: 0.988 ± 0.029

GTTAATGTCC
switch fluorescence ratio: 0.994 ± 0.014

AAGGCGGGCT
switch fluorescence ratio: 0.98942 ± 7e-05

GCCAGGATTG
switch fluorescence ratio: 1.02 ± 0.013

GAACTTTTTT
switch fluorescence ratio: 0.9935 ± 0.0083

GTTTTTAACT
switch fluorescence ratio: 1.012 ± 0.0075

CTAGGTGCAA
switch fluorescence ratio: 1.19 ± 0.091

CAATTCTGTA
switch fluorescence ratio: 0.997 ± 0.028

TATGTTTGCC
switch fluorescence ratio: 1.02 ± 0.047

ACGGCTTTCG
switch fluorescence ratio: 1.05 ± 0.097

ATGTGACTGG
switch fluorescence ratio: 0.986 ± 0.044

AGTCAAGGGT
switch fluorescence ratio: 1 ± 0.0014

CGATGGTTGA
switch fluorescence ratio: 1 ± 0.042

CTCCTCGTGC
switch fluorescence ratio: 3.49 ± 0.47

GGGGTGGACG
switch fluorescence ratio: 1.07 ± 0.021

AGGGGGTGGT
switch fluorescence ratio: 0.987 ± 0.043

TATTATTTTC
switch fluorescence ratio: 1.03 ± 0.046

TGAGTTATGG
switch fluorescence ratio: 0.968 ± 0.03

GGGCTAGGGA
switch fluorescence ratio: 0.972 ± 0.041

TGGTGCAGGA
switch fluorescence ratio: 0.9776 ± 0.0092

TCCGGCTATT
switch fluorescence ratio: 1.108 ± 0.0087

TTTTAGAGTT
switch fluorescence ratio: 0.982 ± 0.013

AAGTTAACTT
switch fluorescence ratio: 0.9883 ± 0.0087

TTATGTATGT
switch fluorescence ratio: 0.996 ± 0.017

TCGTTTGGAG
switch fluorescence ratio: 0.998 ± 0.022

CTATGAGTTT
switch fluorescence ratio: 0.993 ± 0.013

TACCACCGGT
switch fluorescence ratio: 1.02 ± 0.047

TAAAATGGTG
switch fluorescence ratio: 1.01 ± 0.035

GCTAGGTGAC
switch fluorescence ratio: 1.1 ± 0.037

ACTTAGGGGG
switch fluorescence ratio: 1.01 ± 0.024

CGGGGCATAT
switch fluorescence ratio: 1.13 ± 0.085

GAAATAATAA
switch fluorescence ratio: 1.01 ± 0.011

TTGGTATAA
switch fluorescence ratio: 0.999 ± 0.021

CACTAGGCTT
switch fluorescence ratio: 1 ± 0.045

GAGGCATTGC
switch fluorescence ratio: 1.65 ± 0.24

TGTTCCGCTT
switch fluorescence ratio: 2.16 ± 0.17

GGGGTATCGA
switch fluorescence ratio: 0.998 ± 0.039

TTGGTCCGTT
switch fluorescence ratio: 1.02 ± 0.045

ACTGTGGGGC
switch fluorescence ratio: 0.9788 ± 0.0057

GAGCCTTATG
switch fluorescence ratio: 0.994 ± 0.033

GAAGAAAGAG
switch fluorescence ratio: 1.02 ± 0.022

GTGTAATTAT
switch fluorescence ratio: 0.9697 ± 0.0055

GCTCTTTGAC
switch fluorescence ratio: 0.987 ± 0.029

TGAGTGTGAG
switch fluorescence ratio: 0.985 ± 0.035

CATTTTTTGG
switch fluorescence ratio: 0.998 ± 0.019

CAGTGGAGGA
switch fluorescence ratio: 1 ± 0.024

GTAGTAGATG
switch fluorescence ratio: 1.013 ± 0.0097

CGCCCGGGGG
switch fluorescence ratio: 1.32 ± 0.45

AGAATAATGG
switch fluorescence ratio: 1 ± 0.022

TTCTGGTCTA
switch fluorescence ratio: 0.986 ± 0.011

ATCGGGAGGG
switch fluorescence ratio: 1 ± 0.013

GTGAAAGTTT
switch fluorescence ratio: 0.998 ± 0.062

TACGGCGCGA
switch fluorescence ratio: 1.39 ± 0.58

TCAGGGGCCC
switch fluorescence ratio: 1.07 ± 0.084

GGCGTTCGCT
switch fluorescence ratio: 0.984 ± 0.026

TAGTGCGTCG
switch fluorescence ratio: 0.942 ± 0.063

TGACCTCTTA
switch fluorescence ratio: 0.992 ± 0.024

TGTTTGGGGG
switch fluorescence ratio: 1.01 ± 0.036

GGTGGGGTAG
switch fluorescence ratio: 0.988 ± 0.021

GAGGTAGCGC
switch fluorescence ratio: 0.98 ± 0.01

TCAGGATGTT
switch fluorescence ratio: 0.987 ± 0.026

TTTGGTGCGG
switch fluorescence ratio: 0.985 ± 0.01

ACGGGCGGCA
switch fluorescence ratio: 1.16 ± 0.23

ATCTGCATGA
switch fluorescence ratio: 1.01 ± 0.063

GGATGAGGGA
switch fluorescence ratio: 0.957 ± 0.029

AGATGGGGTT
switch fluorescence ratio: 1.01 ± 0.028

AGGGGTAGGC
switch fluorescence ratio: 0.9893 ± 0.0036

GTAATAGGGT
switch fluorescence ratio: 1.01 ± 0.033

GTCAGGGTTG
switch fluorescence ratio: 1 ± 0.048

TATCGAGGGT
switch fluorescence ratio: 0.9698 ± 0.0094

ACAGTTTTCT
switch fluorescence ratio: 1.01 ± 0.024

GTAATAAGGG
switch fluorescence ratio: 1.04 ± 0.041

ATGTAATCAC
switch fluorescence ratio: 1.04 ± 0.049

ATAATGTCGA
switch fluorescence ratio: 1.02 ± 0.026

CGGGTTTCAC
switch fluorescence ratio: 1 ± 0.003

AATAATTAAA
switch fluorescence ratio: 0.9861 ± 0.0097

TGGGGTCGGC
switch fluorescence ratio: 0.987 ± 0.021

GAGAAATACG
switch fluorescence ratio: 1.47 ± 0.08

CTGGTTAACT
switch fluorescence ratio: 1.024 ± 0.0048

GTGGGGCACG
switch fluorescence ratio: 0.9933 ± 0.0095

CGAAGGGAAT
switch fluorescence ratio: 1.03 ± 0.033

TTATTATGTG
switch fluorescence ratio: 0.946 ± 0.022

GCGTTTAGGG
switch fluorescence ratio: 1.03 ± 0.054

TAGGGTATAT
switch fluorescence ratio: 0.986 ± 0.015

GATGTAAAGC
switch fluorescence ratio: 1.02 ± 0.06

GGCGTAGTGC
switch fluorescence ratio: 1.02 ± 0.016

GGGTCGGGTA
switch fluorescence ratio: 1.04 ± 0.017

AAGTTGTCCG
switch fluorescence ratio: 0.964 ± 0.0091

TTGTGCCTAT
switch fluorescence ratio: 1.005 ± 0.0071

TCCTGTACTG
switch fluorescence ratio: 1.04 ± 0.062

AGTCCTAGCC
switch fluorescence ratio: 0.97 ± 0.012

TTTCTATGTA
switch fluorescence ratio: 1.01 ± 0.024

CGTAGGGTTA
switch fluorescence ratio: 1.01 ± 0.025

ATGATCCGTT
switch fluorescence ratio: 1.001 ± 0.0059

TTACTGCTCG
switch fluorescence ratio: 1.01 ± 0.03

AAAATGATAG
switch fluorescence ratio: 1.06 ± 0.072

TTGCTAGTTG
switch fluorescence ratio: 0.994 ± 0.036

TTGGTAAATG
switch fluorescence ratio: 0.999 ± 0.012

GGGGATAGAG
switch fluorescence ratio: 1.01 ± 0.015

GGGGAAAATA
switch fluorescence ratio: 1.007 ± 0.0048

CACGGGGGTT
switch fluorescence ratio: 1 ± 0.018

ATCCGTAATT
switch fluorescence ratio: 2.6 ± 0.22

CCAGGACTGC
switch fluorescence ratio: 0.972 ± 0.036

TCGCTATGCC
switch fluorescence ratio: 0.991 ± 0.13

TATAAGATTA
switch fluorescence ratio: 1.015 ± 0.0027

GAAAAAGTGA
switch fluorescence ratio: 0.975 ± 0.054

TTGGCCTTAG
switch fluorescence ratio: 0.972 ± 0.015

TTCCGACCGG
switch fluorescence ratio: 1.28 ± 0.38

CCCCGGGGGG
switch fluorescence ratio: 1.09 ± 0.15

CGAATAAGCG
switch fluorescence ratio: 0.995 ± 0.023

TCGGATCATT
switch fluorescence ratio: 0.9775 ± 0.0039

AAGTATTATC
switch fluorescence ratio: 1.01 ± 0.019

AGGGCAGTGG
switch fluorescence ratio: 0.9796 ± 0.0025

CGGGTGGTTA
switch fluorescence ratio: 1.01 ± 0.022

AGCCTAATGG
switch fluorescence ratio: 0.995 ± 0.041

ATAGGACATC
switch fluorescence ratio: 1.03 ± 0.04

AGGTCTAGAC
switch fluorescence ratio: 1.04 ± 0.0095

TCTGTTGAAT
switch fluorescence ratio: 1.01 ± 0.072

TGCCAATATC
switch fluorescence ratio: 1.7 ± 0.08

GCTTGCACTA
switch fluorescence ratio: 0.998 ± 0.015

TGTGGGGGTA
switch fluorescence ratio: 0.986 ± 0.034
